Data from PMC7094161.

What was measured:
[1] = target: CDC25C substrate peptide of the EKAR construct; assay: FRET or BRET; FRET/FLIM: EGFP fluorescence lifetime of EKAR constructs (WW domain and peptide on one chain) in fixed, mounted COS cells; serum in the medium
[2] = target: CDC25C substrate peptide of the EKAR construct; assay: FRET or BRET; FRET/FLIM: EGFP fluorescence lifetime of EKAR constructs (WW domain and peptide on one chain) in living COS cells; serum in the medium

Chain of Pin1 WW domain of the EKAR construct (Q13526 5-39): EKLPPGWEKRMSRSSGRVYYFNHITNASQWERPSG

- EGFP fluorescence lifetime [1]: 1.68 ns
- EGFP fluorescence lifetime [2]: 2.12 ns
Substance: Pin1 WW domain of the EKAR construct (from UniProt Q13526 5-39) (domain or fragment)
